We go through three substances from patent US20240025971A1.

For test [1], the target named is SARS-CoV-2 Wuhan-1 full-length Spike protein (SARS-CoV-2) (UniProt P0DTC2). The test is described as follows: cell-based or functional assay.
Test [2] addresses SARS-CoV-1 spike (pseudovirus) (SARS-CoV-1) (UniProt P59594). The experiment in a line: cell-based or functional assay.
In test [3] the target is SARS-CoV-2 Spike (S) trimer (SARS-CoV-2) (UniProt P0DTC2). The experiment in a line: ELISA, S trimer coated, 1:50 dilution.

Where only a bound is given, the exact number is not on record here.

As to “Anti-Nucleocapsid (Neg Control) (antibody)”, the Pseudovirus Neutralization in test [1] and in test [2] was greater than 50 µg/mL each time.

Take CA-1 (AB-009265) (antibody): in test [3], the Optical Density (OD; 450 nm) was found to be 2.74 OD450.

On to CB-6 (AB-009264) (antibody), for which the Optical Density (OD; 450 nm) in test [3] was found to be 2.81 OD450.
